Laboratory results taken from PMC6353796, “Thermostable Branched-Chain Amino Acid Transaminases From the Archaea Geoglobus acetivorans and Archaeoglobus fulgidus: Biochemical and Structural Characterization” (Frontiers in Bioengineering and Biotechnology, 2019).
Where “and” joins values, the source holds several entries; their conditions need not be identical. Equal values may be shown once.

Molecular target: the molecule itself
Assay: SEC; AF0933 on Superdex 200 HiLoad (1.6 x 60 cm) in 50 mM Tris-HCl, pH 7.5, 500 mM NaCl, 0.05 mM PLP; native molecular mass by size exclusion

B1: AF0933, branched-chain amino acid transaminase (BCAT) from Archaeoglobus fulgidus (enzyme)
chain: MLYVYMDGEFVPENEAKVSIFDHGFLYGDGVFEGIRAYNGRVFRLKEHIDRLYDSAKAIDLEIPITKEEFMEIILETLRKNNLRDAYIRPIVTRGIGDLGLDPRKCQNPSIIVITKPWGKLYGDLYEKGLTAITVAVRRNSFDALPPNIKSLNYLNNILAKIEANAKGGDEAIFLDRNGYVSEGSGDNIFVVKNGAITTPPTINNLRGITREAVIEIINRLGIPFKETNIGLYDLYTADEVFVTGTAAEIAPIVVIDGRKIGDGKPGEITRKLMEEFSKLTESEGVPIYE
modifications: PLP covalently bound (Schiff base, internal aldimine) to Lys150
notes: Class IV branched-chain amino acid transaminase AF0933 of Archaeoglobus fulgidus; subunit 32.4 kDa, 290 amino acids; synthetic gene optimised for E. coli; Mainly homo-hexamer in solution with a small dimeric fraction; hexamer in the crystal; also called AF0933_holo; AF0933_GABC; source: E. coli Rosetta (DE3)-pLysS (pLATE51-AF0933), purified (heat step 70°C, Ni-NTA, Superdex 200)
stoichiometry N: 6 and 2
